In US20040054131A1:
Where no end group is shown, it is not given here.

Target: FGFR1c extracellular domain-IgG fusion protein (human) (UniProt P11362)
Assay: BIAcore real-time kinetic analysis, immobilized FGFR1c ECD, no heparin; approximate apparent affinity

Sequence of FGFR1c extracellular domain-IgG fusion protein (human) (P11362 22-377): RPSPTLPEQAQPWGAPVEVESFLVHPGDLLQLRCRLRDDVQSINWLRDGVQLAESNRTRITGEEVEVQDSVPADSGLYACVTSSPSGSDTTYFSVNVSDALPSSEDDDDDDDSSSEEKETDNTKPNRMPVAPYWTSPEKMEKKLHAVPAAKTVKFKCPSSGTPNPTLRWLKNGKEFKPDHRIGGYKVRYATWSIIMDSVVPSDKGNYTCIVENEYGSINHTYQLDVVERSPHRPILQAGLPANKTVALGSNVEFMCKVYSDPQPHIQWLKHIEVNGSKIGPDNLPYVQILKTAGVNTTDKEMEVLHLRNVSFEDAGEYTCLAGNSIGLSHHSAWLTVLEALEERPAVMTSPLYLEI

Kd: 90 nM
B1: C19-Ig fusion protein (Fc fusion, part only; not given: linkers and human IgG1 Fc, not shown: a dimerising Fc or GST)
chain, part: AESGDDYCVLVFTDSAWTKICDWSHFRN
modifications: cysteine pairing not given here; also: homodimer, fused to Fc of human IgG1
